This passage reports absorbance (absorbance (OD)) results from patent publication US20050138692A1.

The test has as its target native Ag GA733-2 on colorectal carcinoma cell line SW948 (human) (UniProt P16422). In words: cell ELISA on fixed SW948 cells, antibody at 0.93 ug/ml. (In general: In an ELISA, binding on a coated surface is turned into a signal by an enzyme label.)

“And” between values parts separate entries of the source, which are not always exact repeats. Equal values may be shown once.

Sequence of UniProt P16422 (P16422 24-314): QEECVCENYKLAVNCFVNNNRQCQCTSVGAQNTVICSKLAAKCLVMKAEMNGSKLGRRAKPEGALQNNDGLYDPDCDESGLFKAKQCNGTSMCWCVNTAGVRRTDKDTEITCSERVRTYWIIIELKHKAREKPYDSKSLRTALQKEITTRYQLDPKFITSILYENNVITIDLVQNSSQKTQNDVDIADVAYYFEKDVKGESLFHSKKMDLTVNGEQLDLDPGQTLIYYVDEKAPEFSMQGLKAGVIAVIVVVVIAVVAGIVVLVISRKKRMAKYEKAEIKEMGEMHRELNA

On to “MAb CO17-1A purified from the hybridoma supernatant (antibody)”, for which the absorbance (absorbance (OD)) was 0.933 and 0.896.
